Tests used:
[1] = system: HeLa Kyoto; experiment: thermal stability score vs G1/S (z-score of summed log2 fold changes over temperatures); higher = more thermally stable than in G1/S
[2] = system: HeLa Kyoto; experiment: solubility in G1/S (NP-40 vs SDS abundance) (log2 ratio); higher = more soluble; conditions: cell cycle stage: G1/S
[3] = system: HeLa Kyoto; experiment: solubility change mitosis vs G1/S (difference of NP-40 vs SDS log2 ratios) (log2 ratio difference); higher = more soluble in mitosis
[4] = system: HeLa Kyoto; experiment: melting temperature (median over replicates), in situ; higher = more thermally stable
[5] = cell cycle stage: early G1 (4.5 h after nocodazole release)
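Throughout, for melting temperature (median over replicates), in situ: HeLa Kyoto cells synchronized by double thymidine or nocodazole block, proteins quantified by TMT10plex mass spectrometry, three independent biological replicates.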
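Throughout, for solubility change mitosis vs G1/S (difference of NP-40 vs SDS log2 ratios): synchronized HeLa Kyoto cells (double thymidine block for G1/S, nocodazole release for mitosis), protein amounts in NP-40 versus SDS lysates quantified by mass spectrometry, three biological replicates.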
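Throughout, for solubility in G1/S (NP-40 vs SDS abundance): HeLa Kyoto cells arrested at G1/S by double thymidine block, proteins quantified by TMT10plex mass spectrometry in mild NP-40 versus SDS extracts, three biological replicates.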
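Throughout, for thermal stability score vs G1/S (z-score of summed log2 fold changes over temperatures): synchronized HeLa Kyoto cells, proteins quantified by TMT10plex mass spectrometry, three biological replicates, mitosis taken 0.5 h after nocodazole release, G1/S directly after double thymidine block.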

Row | Sequence | thermal stability score [1, 5] | thermal stability score ([1]; cell cycle stage: mitosis) | solubility in G1/S (log2) [2] | solubility change mitosis (log2) [3] | melting temperature ([4]; cell cycle stage: G1/S) [°C] | melting temperature ([4]; cell cycle stage: mitosis) [°C]
1 | MEEEGLECPNSSSEKRYFPESLDSSDGDEEEVLACEDLELNPFDGLPYSSRYYKLLKEREDLPIWKEKYSFMENLLQNQIVIVSGDAKCGKSAQVPQWCAEYCLSIHYQHGGVICTQVHKQTVVQLALRVADEMDVNIGHEVGYVIPFENCCTNETILRYCTDDMLQREMMSNPFLGSYGVIILDDIHERSIATDVLLGLLKDVLLARPELKLIINSSPHLISKLNSYYGNVPVIEVKNKHPVEVVYLSEAQKDSFESILRLIFEIHHSGEKGDIVVFLACEQDIEKVCETVYQGSNLNPDLGELVVVPLYPKEKCSLFKPLDETEKRCQVYQRRVVLTTSSGEFLIWSNSVRFVIDVGVERRKVYNPRIRANSLVMQPISQSQAEIRKQILGSSSSGKFFCLYTEEFASKDMTPLKPAEMQEANLTSMVLFMKRIDIAGLGHCDFMNRPAPESLMQALEDLDYLAALDNDGNLSEFGIIMSEFPLDPQLSKSILASCEFDCVDEVLTIAAMVTAPNCFSHVPHGAEEAALTCWKTFLHPEGDHFTLISIYKAYQDTTLNSSSEYCVEKWCRDYFLNCSALRMADVIRAELLEIIKRIELPYAEPAFGSKENTLNIKKALLSGYFMQIARDVDGSGNYLMLTHKQVAQLHPLSGYSITKKMPEWVLFHKFSISENNYIRITSEISPELFMQLVPQYYFSNLPPSESKDILQQVVDHLSPVSTMNKEQQMCETCPETEQRCTLQ [DHX32] | -0.0722 | 0.258 | -0.155 | -0.152 | 49.4 | 50
2 | MEEGGGGVRSLVPGGPVLLVLCGLLEASGGGRALPQLSDDIPFRVNWPGTEFSLPTTGVLYKEDNYVIMTTAHKEKYKCILPLVTSGDEEEEKDYKGPNPRELLEPLFKQSSCSYRIESYWTYEVCHGKHIRQYHEEKETGQKINIHEYYLGNMLAKNLLFEKEREAEEKEKSNEIPTKNIEGQMTPYYPVGMGNGTPCSLKQNRPRSSTVMYICHPESKHEILSVAEVTTCEYEVVILTPLLCSHPKYRFRASPVNDIFCQSLPGSPFKPLTLRQLEQQEEILRVPFRRNKEEDLQSTKEERFPAIHKSIAIGSQPVLTVGTTHISKLTDDQLIKEFLSGSYCFRGGVGWWKYEFCYGKHVHQYHEDKDSGKTSVVVGTWNQEEHIEWAKKNTARAYHLQDDGTQTVRMVSHFYGNGDICDITDKPRQVTVKLKCKESDSPHAVTVYMLEPHSCQYILGVESPVICKILDTADENGLLSLPN [ERLEC1] | 1.6 | 0.429 | 0.0171 | -0.0947 | 54.1 | 54
3 | MEELDGEPTVTLIPGVNSKKNQMYFDWGPGEMLVCETSFNKKEKSEMVPSCPFIYIIRKDVDVYSQILRKLFNESHGIFLGLQRIDEELTGKSRKSQLVRVSKNYRSVIRACMEEMHQVAIAAKDPANGRQFSSQVSILSAMELIWNLCEILFIEVAPAGPLLLHLLDWVRLHVCEVDSLSADVLGSENPSKHDSFWNLVTILVLQGRLDEARQMLSKEADASPASAGICRIMGDLMRTMPILSPGNTQTLTELELKWQHWHEECERYLQDSTFATSPHLESLLKIMLGDEAALLEQKELLSNWYHFLVTRLLYSNPTVKPIDLHYYAQSSLDLFLGGESSPEPLDNILLAAFEFDIHQVIKECSIALSNWWFVAHLTDLLDHCKLLQSHNLYFGSNMREFLLLEYASGLFAHPSLWQLGVDYFDYCPELGRVSLELHIERIPLNTEQKALKVLRICEQRQMTEQVRSICKILAMKAVRNNRLGSALSWSIRAKDAAFATLVSDRFLRDYCERGCFSDLDLIDNLGPAMMLSDRLTFLGKYREFHRMYGEKRFADAASLLLSLMTSRIAPRSFWMTLLTDALPLLEQKQVIFSAEQTYELMRCLEDLTSRRPVHGESDTEQLQDDDIETTKVEMLRLSLARNLARAIIREGSLEGS [NUP85] | -2.34 | -4.7 | -0.6 | 0.246 | 52.3 | 50.8
4 | MEESHFNSNPYFWPSIPTVSGQIENTMFINKMKDQLLPEKGCGLAPPHYPTLLTVPASVSLPSGISMDTESKSDQLTPHSQASVTQNITVVPVPSTGLMTAGVSCSQRWRREGSQSRGPGLVITSPSGSLVTTASSAQTFPISAPMIVSALPPGSQALQVVPDLSKKVASTLTEEGGGGGGGGGSVAPKPPRGRKKKRMLESGLPEMNDPYVLSPEDDDDHQKDGKTYRCRMCSLTFYSKSEMQIHSKSHTETKPHKCPHCSKTFANSSYLAQHIRIHSGAKPYSCNFCEKSFRQLSHLQQHTRIHSKMHTETIKPHKCPHCSKTFANTSYLAQHLRIHSGAKPYNCSYCQKAFRQLSHLQQHTRIHTGDRPYKCAHPGCEKAFTQLSNLQSHRRQHNKDKPFKCHNCHRAYTDAASLEVHLSTHTVKHAKVYTCTICSRAYTSETYLMKHMRKHNPPDLQQQVQAAAAAAAVAQAQAQAQAQAQAQAQAQAQAQASQASQQQQQQQQQQQQQQQQPPPHFQSPGAAPQGGGGGDSNPNPPPQCSFDLTPYKTAEHHKDICLTVTTSTIQVEHLASS [ZNF384] | -0.69 | -1.1 | -0.109 | 0.0582 | 51.6 | 52.4
5 | MEEVRCPEHGTFCFLKTGVRDGPNKGKSFYVCRADTCSFVRATDIPVSHCLLHEDFVVELQGLLLPQDKKEYRLFFRCIRSKAEGKRWCGSIPWQDPDSKEHSVSNKSQHASETFHHSSNWLRNPFKVLDKNQEPALWKQLIKGEGEEKKADKKQREKGDQLFDQKKEQKPEMMEKDLSSGLVPKKKQSVVQEKKQEEGAEIQCEAETGGTHKRDFSEIKSQQCQGNELTRPSASSQEKSSGKSQDVQRESEPLREKVTQLLPQNVHSHNSISKPQKGGPLNKEYTNWEAKETKAKDGPSIQATQKSLPQGHFQERPETHSVPAPGGPAAQAAPAAPGLSLGEGREAATSSDDEEEDDVVFVSSKPGSPLLFDSTLDLETKENLQFPDRSVQRKVSPASGVSKKVEPSDPVARRVYLTTQLKQKKSTLASVNIQALPDKGQKLIKQIQELEEVLSGLTLSPEQGTNEKSNSQVPQQSHFTKTTTGPPHLVPPQPLPRRGTQPVGSLELKSACQVTAGGSSQCYRGHTNQDHVHAVWKITSEAIGQLHRSLESCPGETVVAEDPAGLKVPLLLHQKQALAWLLWRESQKPQGGILADDMGLGKTLTMIALILTQKNQEKKEEKEKSTALTWLSKDDSCDFTSHGTLIICPASLIHHWKNEVEKRVNSNKLRVYLYHGPNRDSRARVLSTYDIVITTYSLVAKEIPTNKQEAEIPGANLNVEGTSTPLLRIAWARIILDEAHNVKNPRVQTSIAVCKLQACARWAVTGTPIQNNLLDMYSLLKFLRCSPFDEFNLWRSQVDNGSKKGGERLSILTKSLLLRRTKDQLDSTGRPLVILPQRKFQLHHLKLSEDEETVYNVFFARSRSALQSYLKRHESRGNQSGRSPNNPFSRVALEFGSEEPRHSEAADSPRSSTVHILSQLLRLRQCCCHLSLLKSALDPMELKGEGLVLSLEEQLSALTLSELRDSEPSSTVSLNGTFFKMELFEGMRESTKISSLLAELEAIQRNSASQKSVIVSQWTNMLKVVALHLKKHGLTYATIDGSVNPKQRMDLVEAFNHSRGPQVMLISLLAGGVGLNLTGGNHLFLLDMHWNPSLEDQACDRIYRVGQQKDVVIHRFVCEGTVEEKILQLQEKKKDLAKQVLSGSGESVTKLTLADLRVLFGI [TTF2] | 0.916 | 0.826 | -0.107 | -0.0303 | 48.3 | 49.1
6 | MEFLKTCVLRRNACTAVCFWRSKVVQKPSVRRISTTSPRSTVMPAWVIDKYGKNEVLRFTQNMMMPIIHYPNEVIVKVHAASVNPIDVNMRSGYGATALNMKRDPLHVKIKGEEFPLTLGRDVSGVVMECGLDVKYFKPGDEVWAAVPPWKQGTLSEFVVVSGNEVSHKPKSLTHTQAASLPYVALTAWSAINKVGGLNDKNCTGKRVLILGASGGVGTFAIQVMKAWDAHVTAVCSQDASELVRKLGADDVIDYKSGSVEEQLKSLKPFDFILDNVGGSTETWAPDFLKKWSGATYVTLVTPFLLNMDRLGIADGMLQTGVTVGSKALKHFWKGVHYRWAFFMASGPCLDDIAELVDAGKIRPVIEQTFPFSKVPEAFLKVERGHARGKTVINVV [RTN4IP1] | 0.632 | 1.04 | -0.119 | -0.0156 | 50.7 | 51.7
7 | MEFQAVVMAVGGGSRMTDLTSSIPKPLLPVGNKPLIWYPLNLLERVGFEEVIVVTTRDVQKALCAEFKMKMKPDIVCIPDDADMGTADSLRYIYPKLKTDVLVLSCDLITDVALHEVVDLFRAYDASLAMLMRKGQDSIEPVPGQKGKKKAVEQRDFIGVDSTGKRLLFMANEADLDEELVIKGSILQKHPRIRFHTGLVDAHLYCLKKYIVDFLMENGSITSIRSELIPYLVRKQFSSASSQQGQEEKEEDLKKKELKSLDIYSFIKEANTLNLAPYDACWNACRGDRWEDLSRSQVRCYVHIMKEGLCSRVSTLGLYMEANRQVPKLLSALCPEEPPVHSSAQIVSKHLVGVDSLIGPETQIGEKSSIKRSVIGSSCLIKDRVTITNCLLMNSVTVEEGSNIQGSVICNNAVIEKGADIKDCLIGSGQRIEAKAKRVNEVIVGNDQLMEI [EIF2B3] | -0.882 | -0.4 | -0.0277 | -0.222 | 50.5 | 50.7
8 | MEGGPAVCCQDPRAELVERVAAIDVTHLEEADGGPEPTRNGVDPPPRARAASVIPGSTSRLLPARPSLSARKLSLQERPAGSYLEAQAGPYATGPASHISPRAWRRPTIESHHVAISDAEDCVQLNQYKLQSEIGKGAYGVVRLAYNESEDRHYAMKVLSKKKLLKQYGFPRRPPPRGSQAAQGGPAKQLLPLERVYQEIAILKKLDHVNVVKLIEVLDDPAEDNLYLVFDLLRKGPVMEVPCDKPFSEEQARLYLRDVILGLEYLHCQKIVHRDIKPSNLLLGDDGHVKIADFGVSNQFEGNDAQLSSTAGTPAFMAPEAISDSGQSFSGKALDVWATGVTLYCFVYGKCPFIDDFILALHRKIKNEPVVFPEEPEISEELKDLILKMLDKNPETRIGVPDIKLHPWVTKNGEEPLPSEEEHCSVVEVTEEEVKNSVRLIPSWTTVILVKSMLRKRSFGNPFEPQARREERSMSAPGNLLVKEGFGEGGKSPELPGVQEDEAAS [CAMKK1] | -0.286 | 0.129 | 0.186 | 0.147 |  | 50.4
9 | MEGMDVDLDPELMQKFSCLGTTDKDVLISEFQRLLGFQLNPAGCAFFLDMTNWNLQAAIGAYYDFESPNISVPSMSFVEDVTIGEGESIPPDTQFVKTWRIQNSGAEAWPPGVCLKYVGGDQFGHVNMVMVRSLEPQEIADVSVQMCSPSRAGMYQGQWRMCTATGLYYGDVIWVILSVEVGGLLGVTQQLSSFETEFNTQPHRKVEGNFNPFASPQKNRQSDENNLKDPGGSEFDSISKNTWAPAPDTWAPAPDQTEQDQNRLSQNSVNLSPSSHANNLSVVTYSKGLHGPYPFGQS [C6ORF106] | 0.563 | 0.668 | 0.214 | -0.211 | 49.4 | 
10 | MEGPAEWGPEAALGPEAVLRFLAERGGRALHAELVQHFRGALGGEPEQRARARAHFKELVNAVATVRVDPADGAKYVHLKKRFCEGPSEPSGDPPRIQVTAEPEAPDGPAGPEARDRLPDAAAPESLPGQGRELGEGEPPAPAHWPPLSAGARRKNSRRDVQPLPRTPAPGPSEDLELPPHGCEEADRGSSLVGATAQRPARQNLRDLVMGSSPQLKRSVCPGGSSPGSSSGGGRGRGGGDSDSASVASSSAEEESSGGGSVTLDPLEHAWMLSASDGKWDSLEGLLTCEPGLLVKRDFITGFTCLHWAAKHGRQELLAMLVNFANKHQLPVNIDARTSGGYTALHLAAMHGHVEVVKLLVGAYDADVDIRDYSGKKASQYLSRSIAEEIKNLVGALDEGDGESAAGSGGGRWRLSKVLPSHLITYKLSHALEDGGDHHHHHHSAEGWVGGKAKDPGRKASGSSSGRIKPRLNKIRFRTQIVHTTPSFRDPEQPLEGRGEEGVGEERPVKGHSPFTLRPKSNVFG [SOWAHC] | 0.128 | -0.236 | 0.325 | 0.021 | 51.2 | 49.7

Source: the supplement of paper PMC5998384
